Read-outs that look alike come from different tables or passages of the source.
T1: CDT1^ΔN (N-terminally truncated CDT1^158-546) (human, UniProt Q9H211 158-546)
T1 chain: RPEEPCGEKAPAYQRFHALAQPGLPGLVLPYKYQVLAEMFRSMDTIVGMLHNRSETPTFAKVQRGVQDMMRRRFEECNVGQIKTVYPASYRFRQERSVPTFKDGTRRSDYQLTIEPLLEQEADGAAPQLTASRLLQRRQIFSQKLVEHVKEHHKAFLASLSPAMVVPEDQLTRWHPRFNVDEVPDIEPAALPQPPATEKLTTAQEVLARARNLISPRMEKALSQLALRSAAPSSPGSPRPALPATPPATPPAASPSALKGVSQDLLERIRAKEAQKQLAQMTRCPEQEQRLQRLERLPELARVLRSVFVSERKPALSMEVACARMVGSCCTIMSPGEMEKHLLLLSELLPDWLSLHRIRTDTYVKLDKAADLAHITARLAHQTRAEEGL

T2: CDT1^ΔN (N-terminally truncated CDT1^158-546) (human, UniProt Q9H211 158-546)
T2 construct: CDT1, human, UniProt Q9H211, residues 158-546 (lacks the unstructured N-terminus); Plasmid is in Supplementary Data 1; The His tag serves for capture on the NTA chip in the SPR with peptides; also called standard CDT1 construct; source: E. coli BL21 (DE3), purified (HisTrap Excel, POROS HS, Superdex 200); not shown: His6, N-terminal, kept
T2 sequence (looked up): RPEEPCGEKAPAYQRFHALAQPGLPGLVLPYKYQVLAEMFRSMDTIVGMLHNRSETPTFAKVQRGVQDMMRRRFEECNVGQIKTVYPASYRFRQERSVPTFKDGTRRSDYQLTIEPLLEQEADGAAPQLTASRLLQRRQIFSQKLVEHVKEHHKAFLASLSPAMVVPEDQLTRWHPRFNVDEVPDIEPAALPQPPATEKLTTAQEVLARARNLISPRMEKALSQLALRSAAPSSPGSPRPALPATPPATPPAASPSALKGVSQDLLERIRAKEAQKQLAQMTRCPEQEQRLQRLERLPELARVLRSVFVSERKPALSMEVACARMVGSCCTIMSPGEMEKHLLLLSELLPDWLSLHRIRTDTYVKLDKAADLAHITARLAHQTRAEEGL


Key:
[1] = target: T1, CDT1^ΔN (N-terminally truncated …); experiment: SPR
[2] = target: T1, CDT1^ΔN (N-terminally truncated …); experiment: SPR
[3] = target: the molecule itself; experiment: SEC-MALS; Superdex 200 Increase 10/300 GL; peptides 500–1000 µM, 100 µL injected; 10 mM HEPES, 150 mM NaCl, 1 mM TCEP-HCl, pH 7.5; 0.25 mL/min
[4] = target: T2, CDT1^ΔN (N-terminally truncated …); experiment: SPR; multi-cycle; CDT1^ΔN captured by its N-terminal His tag on an NTA chip; geminin peptides 0.49–250 nM (two-fold steps); 25 °C; 10 mM HEPES, 500 mM NaCl, 50 µM EDTA, 1 mM TCEP-HCl, 0.05% Tween-20, pH 8.0; 1:1 kinetic model of analyte dimer:CDT1, steady-state 1:1 model for Gem^96–160 and Gem^102–160; details: both partners purified
[5] = target: T2, CDT1^ΔN (N-terminally truncated …); experiment: SPR; CDT1^ΔN with Gem^LINK; steady-state 1:1 binding model; chip and cycle format not stated for Gem^LINK; 25 °C; 10 mM HEPES, 500 mM NaCl, 50 µM EDTA, 1 mM TCEP-HCl, 0.05% Tween-20, pH 8.0; details: both partners purified
[6] = target: T1, CDT1^ΔN (N-terminally truncated …); experiment: SPR
[7] = target: T1, CDT1^ΔN (N-terminally truncated …); experiment: SPR
[8] = target: T1, CDT1^ΔN (N-terminally truncated …); experiment: SPR

binding result [4]	Kd [4]	Binder	stoichiometry N [3]	further results
binds	–	Gem^76–140 (peptide, UniProt O75496 76-140, looked up, geminin, human, UniProt O75496, residues 76-140; Made on Rink amide resin; source: synthetic peptide) peptide: Ac-KNLGGVTQESFDLMIKENPSSQYWKEVAEKRRKALYEALKENEKLHKEIEQKDNEIARLKKENKE-NH2	2	Kd [1]: 11 nM; koff [2]: 0.0033 s⁻¹
–	38 nM	Ac-SQYWKEVAEKRRKALYEALKENEKLHKEIEQKDNEIARLKKENKELAEVA-NH2 (peptide, UniProt O75496 96-145, looked up, geminin, human, UniProt O75496, residues 96-145; Made on Rink amide resin; source: synthetic peptide) [Gem^96–145]	2	koff [7]: 0.031 s⁻¹
binds	–	Gem^76–135 (peptide, UniProt O75496 76-135, looked up, Made on Rink amide resin; source: synthetic peptide) peptide: Ac-KNLGGVTQESFDLMIKENPSSQYWKEVAEKRRKALYEALKENEKLHKEIEQKDNEIARLK-NH2	2	Kd [1]: 7 nM; koff [2]: 0.0029 s⁻¹
–	5.7 nM	Gem^76–145 (chemically synthesised peptide) (peptide, UniProt O75496 76-145, looked up, geminin, human, UniProt O75496, residues 76-145; Made on Rink amide resin; The recombinant recGem^76–145 is another molecule, used only in licensing assays; source: synthetic peptide) peptide: Ac-KNLGGVTQESFDLMIKENPSSQYWKEVAEKRRKALYEALKENEKLHKEIEQKDNEIARLKKENKELAEVA-NH2	2	koff [8]: 0.0034 s⁻¹
binds	–	Ac-SQYWKEVAEKRRKALYEALKENEKLHKEIEQKDNEIARLKKENKE-NH2 (peptide, UniProt O75496 96-140, looked up, geminin, human, UniProt O75496, residues 96-140; Made on Rink amide resin; source: synthetic peptide) [Gem^96–140]	2	koff [7]: 0.022 s⁻¹; Kd [6]: 32 nM

The next lines start with the binder.

Binder	binding result [4]	Kd [4]	stoichiometry N [3]	further results
Gem^LINK (geminin with a short glycine linker between the two CDT1 interaction interfaces) (natural protein, Full-length geminin with a 5x Gly insertion between I90 and K91 (K96 in post-insertion numbering; no deletion, since mutant residues 76-165 correspond to WT 76-160). Homodimer assumed as for wild …) MNPSMKQKQEEIKENIKNSSVPRRTLKMIQPSASGSLVGRENELSAGLSKRKHRNDHLTSTTSSPGVIVPESSENKNLGGVTQESFDLMIGGGGGKENPSSQYWKEVAEKRRKALYEALKENEKLHKEIEQKDNEIARLKKENKELAEVAEHVQYMAELIERLNGEPLDNFESLDNQEFDSEEETVEDSLVEDSEIGTCAEGTVSSSTDAKPCI	–	–	–	Kd [5]: 38 nM
Gem^96–160 (geminin coiled-coil peptide) (peptide, UniProt O75496 96-160, looked up, geminin, human, UniProt O75496, residues 96-160 (the full coiled-coil); Made on Rink amide resin; source: synthetic peptide) peptide: Ac-SQYWKEVAEKRRKALYEALKENEKLHKEIEQKDNEIARLKKENKELAEVAEHVQYMAELIERLNG-NH2	binds	–	2	Kd [6]: 21 nM
Gem^90–145 (peptide, UniProt O75496 90-145, looked up, geminin, human, UniProt O75496, residues 90-145; Made on Rink amide resin; source: synthetic peptide) peptide: Ac-IKENPSSQYWKEVAEKRRKALYEALKENEKLHKEIEQKDNEIARLKKENKELAEVA-NH2	–	93 nM	2	koff [8]: 0.045 s⁻¹
Ac-SQYWKEVAEKRRKALYEALKENEKLHKEIEQKDNEIARLK-NH2 (peptide, UniProt O75496 96-135, looked up, Made on Rink amide resin; source: synthetic peptide) [Gem^96–135 (minimal CDT1-binding peptide)]	binds	–	2	koff [7]: 0.024 s⁻¹; Kd [6]: 22 nM
Gem^82–145 (peptide, UniProt O75496 82-145, looked up, geminin, human, UniProt O75496, residues 82-145; Made on Rink amide resin; source: synthetic peptide) peptide: Ac-TQESFDLMIKENPSSQYWKEVAEKRRKALYEALKENEKLHKEIEQKDNEIARLKKENKELAEVA-NH2	–	5.8 nM	2	koff [8]: 0.0032 s⁻¹
Gem^102–160 (peptide, UniProt O75496 102-160, looked up, geminin, human, UniProt O75496, residues 102-160; Made on Rink amide resin; source: synthetic peptide) peptide: Ac-VAEKRRKALYEALKENEKLHKEIEQKDNEIARLKKENKELAEVAEHVQYMAELIERLNG-NH2	–	2800 nM	2	–

Reference: article PMC12695944, “Geminin inhibits DNA replication licensing by sterically blocking CDT1-MCM2 interactions” (Nature Communications, 2025)
